# Earlier results in article PMC3713533.
# Target: VWF73 VWF73 (Homo sapiens) (UniProt P04275)
# UniProt P04275, sequence (P04275 1596-1668): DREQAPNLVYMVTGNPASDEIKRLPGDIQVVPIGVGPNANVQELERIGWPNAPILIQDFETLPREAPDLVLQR
substance,measurement,value
ADAMTS13 TSP1 repeat 1 (from UniProt Q76LX8),Kd,136 nM
